How the values were obtained:
BODIPY-β-annulus peptide [1] = target: T1, BODIPY-β-annulus peptide (tomato bushy stunt virus, BODIPY-maleimide added by Michael addition to the thiol of the N-terminal Cys); assay: fluorescence correlation spectroscopy (FCS); 0.1 μM BODIPY-β-annulus peptide with 0~200 μM β-annulus peptide in 10 mM Tris-HCl buffer (pH 7.0) with 5 wt% PEG2000, 25 °C; ratio of the slow component fitted to the Hill equation; settings: both partners purified
T1 construct: also called BODIPY-labelled β-annulus peptide; fluorescent-labelled β-annulus peptide; source: synthetic peptide (solid-phase Fmoc chemistry; labelled with BODIPY-maleimide; purified by reversed-phase HPLC)
T1 peptide: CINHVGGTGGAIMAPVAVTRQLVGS

[2] = target: the molecule itself; assay: as above
BODIPY-β-annulus peptide [3] = target: T1, BODIPY-β-annulus peptide; assay: as above; settings: both partners purified
BODIPY-β-annulus peptide [4] = target: T1, BODIPY-β-annulus peptide; assay: fluorescence correlation spectroscopy (FCS); 0.1 μM BODIPY-β-annulus peptide with 0~200 μM β-annulus peptide in 10 mM Tris-HCl buffer (pH 7.0) with 10 wt% PEG2000, 25 °C; ratio of the slow component fitted to the Hill equation; settings: both partners purified
BODIPY-β-annulus peptide [5] = target: T1, BODIPY-β-annulus peptide; assay: fluorescence correlation spectroscopy (FCS); 0.1 μM BODIPY-β-annulus peptide with 0~200 μM β-annulus peptide in 10 mM Tris-HCl buffer (pH 7.0) with 15 wt% PEG2000, 25 °C; ratio of the slow component fitted to the Hill equation; settings: both partners purified
BODIPY-β-annulus peptide [6] = target: T1, BODIPY-β-annulus peptide; assay: fluorescence correlation spectroscopy (FCS); 0.1 μM BODIPY-β-annulus peptide with 0~200 μM β-annulus peptide in 10 mM Tris-HCl buffer (pH 7.0) with 20 wt% PEG2000, 25 °C; ratio of the slow component fitted to the Hill equation; settings: both partners purified
BODIPY-β-annulus peptide [7] = target: T1, BODIPY-β-annulus peptide; assay: fluorescence correlation spectroscopy (FCS); 0.1 μM BODIPY-β-annulus peptide with 0~200 μM β-annulus peptide in 10 mM Tris-HCl buffer (pH 7.0), sonicated 10 min, incubated 30 min, 25 °C; ratio of the slow component fitted to the Hill equation; apparent Kd; settings: both partners purified
BODIPY-β-annulus peptide [8] = target: T1, BODIPY-β-annulus peptide; assay: as above; settings: both partners purified

B1: 24-mer β-annulus peptide from tomato bushy stunt virus (peptide)
peptide: INHVGGTGGAIMAPVAVTRQLVGS
notes: also called unmodified β-annulus peptide; source: synthetic peptide (solid-phase Fmoc chemistry, purified by reversed-phase HPLC)
With B1 the “ratio of the slow component at 200 μM β-annulus” value (BODIPY-β-annulus peptide [1]) was 76%, the binding result [2] was “binds” and the Kd (BODIPY-β-annulus peptide [3]) was 14.4 ± 7.81 µM. For the same binder, the Kd (BODIPY-β-annulus peptide [4]) was 6.69 ± 3.25 µM, the Kd (BODIPY-β-annulus peptide [5]) was 4.24 ± 3.22 µM and the Kd (BODIPY-β-annulus peptide [6]) was 5.66 ± 2.15 µM. For the same binder, the “ratio of the slow component at 200 μM β-annulus” value (BODIPY-β-annulus peptide [7]) was 62% and the Kd (BODIPY-β-annulus peptide [8]) was 45.2 ± 10.6 µM.
